In publication PMC7656253, “Recovery of motor function of chronic spinal cord injury by extracellular pyruvate kinase isoform M2 and the underlying mechanism” (Scientific Reports, 2020):

Target: T1, Recombinant human valosin-containing protein (VCP) (human, UniProt P55072 1-806)
T1 construct: valosin-containing protein (VCP), human, recombinant; Commercial protein; The supplier is printed as 'Abnoba', probably Abnova; No catalogue number or tag is printed; also called recombinant VCP; source: bought: Abnoba, Taipei, Taiwan
T1 sequence (P55072 whole entry): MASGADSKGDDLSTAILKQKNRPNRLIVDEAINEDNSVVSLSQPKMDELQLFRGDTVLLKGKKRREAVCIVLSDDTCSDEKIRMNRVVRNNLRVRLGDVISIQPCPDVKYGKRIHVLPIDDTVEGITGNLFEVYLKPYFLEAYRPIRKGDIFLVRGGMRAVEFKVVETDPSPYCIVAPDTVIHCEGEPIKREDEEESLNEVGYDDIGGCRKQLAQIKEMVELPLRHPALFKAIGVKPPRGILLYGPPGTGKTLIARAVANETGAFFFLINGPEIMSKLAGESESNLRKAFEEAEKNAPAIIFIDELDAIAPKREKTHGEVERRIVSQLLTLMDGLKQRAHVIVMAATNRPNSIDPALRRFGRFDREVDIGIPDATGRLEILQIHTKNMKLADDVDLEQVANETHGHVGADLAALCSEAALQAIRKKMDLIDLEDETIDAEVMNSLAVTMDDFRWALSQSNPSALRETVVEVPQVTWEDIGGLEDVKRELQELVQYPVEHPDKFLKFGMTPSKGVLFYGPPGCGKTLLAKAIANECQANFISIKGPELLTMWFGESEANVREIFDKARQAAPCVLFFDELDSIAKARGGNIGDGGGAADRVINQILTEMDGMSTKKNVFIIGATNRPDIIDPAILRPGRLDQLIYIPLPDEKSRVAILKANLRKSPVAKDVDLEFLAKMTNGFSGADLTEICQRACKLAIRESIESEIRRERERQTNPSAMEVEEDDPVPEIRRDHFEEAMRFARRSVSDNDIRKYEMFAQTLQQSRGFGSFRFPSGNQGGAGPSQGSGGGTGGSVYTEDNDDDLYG
Assay: co-IP; recombinant mouse PKM2 (100 pmol) and recombinant human VCP (10 pmol) coincubated 1 h at 25 °C; precipitated with rabbit anti-PKM2 antibody or normal mouse IgG cross-linked to Dynabeads Protein G, 2 h at 25 °C; Western blot for PKM2 and VCP
Conditions: both partners purified

binding result: binds
B1: Recombinant mouse pyruvate kinase isoform M2 (PKM2) (enzyme)
chain: not shown
notes: pyruvate kinase isoform M2 (PKM2), mouse, recombinant; Commercial protein; No catalogue number, expression host or tag is printed; also called recombinant PKM2; extracellular PKM2; source: bought: Abcam
